The text below walks through data of publication PMC5512084.

Test [1] has as its target mononucleosome (calf thymus histone octamer assembled on 601 nucleosome positioning sequence DNA) (bovine (calf thymus)).
The target is the same in test [2]. As to the kind of experiment: native gel or EMSA; 2 nM IRDYE-labeled mononucleosome with 50 bp of linker DNA on both ends, 2-fold dilution series of CHD enzyme; EMSA buffer (20 mM Tris HCl pH 8.0, 75 mM NaCl, 5 mM MgCl2), 30 min at 25 °C, 4% native PAGE. (In general: A gel shift assay detects complexes by their altered migration in electrophoresis.)

On to “CHD7 (from UniProt Q9P2D1 1-2997) (enzyme)”, for which, in test [1], the Km of nucleosome-stimulated ATP hydrolysis (nucleosome concentration at half-maximal ATPase activation; mononucleosome with 50-bp linker DNA on both sides) worked out at 6 nM. Turning to “CHD8 (from UniProt Q9HCK8 1-2581) (enzyme)”, the Km of nucleosome-stimulated ATP hydrolysis (nucleosome concentration at half-maximal ATPase activation; mononucleosome with 50-bp linker DNA on both sides) in test [1] was determined as 55 nM. This substance registered a fold affinity against the nucleosome with only one 100-bp DNA linker in test [2] of 2 fold. With “CHD6 (from UniProt Q8TD26 1-2715) (enzyme)”, in test [1], the Km of nucleosome-stimulated ATP hydrolysis (nucleosome concentration at half-maximal ATPase activation; mononucleosome with 50-bp linker DNA on both sides) was determined as 6 nM.
